Laboratory results from the RNAGym collection of RNA variant scans (doi:10.7554/elife.90254).

B1: LINE1-full (parent)
chain: UACGUAGGUGGUUUUCCCCUGAUAGUGCUAAGGGGGCCUGGAAGUUUGGACUGGGCAGAGCUCAACACAGCGUGGCAAAGUGGCUGUGGCUAGACUGCCUCUCUGGAUUCCUCGUCACUCAGCAGGGCAUCUCUGAGAGAAAUGCC

Variants of: B1
Assay: self-cleavage, relative activity (ratio to wild type); higher = more cleavage; in vitro, sequencing; the parent is a self-cleaving ribozyme

In order of rising self-cleavage:
1. G53A U96C  0
2. C3U U143G  0
3. U9A G60U  0
4. C61U U100A  0.01
5. A42G C66U  0.01
6. U73C C90U  0.01
7. G44A U62C  0.02
8. U96C G97A  0.02
9. G34U A65G  0.02
10. G60A A78U  0.02
11. U62A C128U  0.03
12. A2C G93A  0.03
13. A65G U112A  0.04
14. U14A A57C  0.04
15. A50G U96A  0.04
16. A59U A69U  0.04
17. G89U G125A  0.05
18. A50C U85C  0.06
19. U13A A57U  0.06
20. A22G C61U  0.07
21. U62C U104C  0.07
22. G54A A57C  0.07
23. U87A U109A  0.08
24. U46C U91G  0.09
25. C84G U104C  0.11
26. U85A U91A  0.11
27. A2C A65G  0.12
28. U5A U85A  0.14
29. C84U U108C  0.15
30. G32A U85C  0.16
31. U12A G70A  0.18
32. U87C A117U  0.19
33. A94G A138G  0.19
34. U87C C146A  0.2
35. A94C A117G  0.22
36. A57C U143A  0.22
37. U45G A64G  0.24
38. G55A A142G  0.27
39. A64G A136U  0.28
40. U15A U87C  0.28
41. A94G U132G  0.28
42. A69G U109C  0.29
43. U1A A67C  0.3
44. U23C C63U  0.35
45. A67G A69C  0.37
46. A50G A64C  0.37
47. U91C C145U  0.43
48. C16A U104A  0.47
49. A50G G74A  0.48
50. G83A A140G  0.49
51. U73C A121C  0.54
52. A6G U39A  0.6
53. G48A A57G  0.6
54. U52G A67G  0.64
55. A6G U102C  0.68
56. U26C A79U  0.68
57. A50U A141G  0.68
58. U14A U115A  0.7
59. A22G U91A  0.71
60. A6G U109C  0.71
61. U13C G82A  0.72
62. A31U G82U  0.74
63. A77U A136U  0.75
64. A42C A124G  0.79
65. U73C G125A  0.8
66. U29C A92U  0.81
67. A22G A107G  0.82
68. A22G U45G  0.82
69. U13A U102C  0.84
70. A6G C113U  0.84
71. A30G U46A  0.84
72. U12G A124G  0.84
73. U13C G27A  0.85
74. U46C C120A  0.85
75. U15A A124U  0.85
76. U104A U143A  0.88
77. A31U U45A  0.9
78. G27A G53A  0.94
79. U13C U26A  0.97
80. U45A A121U  0.99
81. U14C U143A  0.99
82. G27A A42G  0.99
83. A31C U143A  1.01
84. A50C U132C  1.02
85. U26C G122U  1.05
86. U20A A50U  1.06
87. C16U C38U  1.06
88. G36C  1.07
89. U12C G144A  1.08
90. A2U U132C  1.09
91. U9A G36A  1.09
92. G54A A117C  1.1
93. U29C G74A  1.11
94. G7A U104A  1.11
95. U52A C123U  1.11
96. A50G U119C  1.11
97. U26A U108C  1.13
98. A117C G144U  1.13
99. A22G G75A  1.13
100. G4A U115A  1.14
101. G10A G21A  1.14
102. C38U U134C  1.14
103. U39C U47A  1.15
104. G7A U104C  1.15
105. U15A C28A  1.16
106. A6C U45C  1.18
107. G21A A77U  1.18
108. U39C A79U  1.2
109. A43G C123U  1.21
110. U46C G106A  1.22
111. G21A C28U  1.22
112. U119C A121G  1.23
113. U23A U29A  1.24
114. U108A U132A  1.24
115. U29A U109C  1.25
116. U100A A136G  1.25
117. U109C G127U  1.25
118. G114A A140C  1.27
119. U29C U109A  1.28
120. U1A A24U  1.28
121. G54C U104C  1.3
122. U15C U23G  1.31
123. U20A G72A  1.31
124. G127A C145A  1.32
125. G72U A121G  1.32
126. U52A A141U  1.35
127. C51A U109C  1.35
128. C101U U108C  1.37
129. U20A A136U  1.38
130. C131U A136G  1.39
131. A6G A117G  1.41
132. U9C U100A  1.41
133. U13C C123A  1.42
134. U47A A129G  1.43
135. U46C G125C  1.44
136. C28U U81A  1.44
137. A117G C123U  1.48
138. U29A A78U  1.48
139. U45A U108C  1.48
140. U130C G139A  1.5
141. C133A C145A  1.51
142. C103U A124G  1.56
143. U112C A138G  1.58
144. U73C U115A  1.58
145. U115A A117G  1.61
146. U81C U143C  1.61
147. U26G U73A  1.61
148. U46A A138G  1.66
149. U12C A22U  1.68
150. G125A U130C  1.69
151. A77G A121G  1.69
152. A77U U132G  1.74
153. U39C U46G  1.75
154. U115C U119A  1.78
155. U13C C131U  1.79
156. G11A A138G  1.93
157. U14C U143G  1.93
158. U52C U132G  1.93
159. G80A A124U  2.27
160. U81A U109A  2.28
161. U45G A142G  2.33
162. A77G G125A  2.43
163. U47C U81A  2.45
164. U12G G34U  2.48
165. U73A C101U  2.61
166. C19A A77G  2.71
167. G34A A107G  2.74
